Measurements as given in PMC4980298 (Molecular microbiology, 2016).

Target: T1, FimL fused to T18 or T25 (BACTH) (P. aeruginosa PAO1, UniProt Q9I2S3 1-562)
T1 sequence: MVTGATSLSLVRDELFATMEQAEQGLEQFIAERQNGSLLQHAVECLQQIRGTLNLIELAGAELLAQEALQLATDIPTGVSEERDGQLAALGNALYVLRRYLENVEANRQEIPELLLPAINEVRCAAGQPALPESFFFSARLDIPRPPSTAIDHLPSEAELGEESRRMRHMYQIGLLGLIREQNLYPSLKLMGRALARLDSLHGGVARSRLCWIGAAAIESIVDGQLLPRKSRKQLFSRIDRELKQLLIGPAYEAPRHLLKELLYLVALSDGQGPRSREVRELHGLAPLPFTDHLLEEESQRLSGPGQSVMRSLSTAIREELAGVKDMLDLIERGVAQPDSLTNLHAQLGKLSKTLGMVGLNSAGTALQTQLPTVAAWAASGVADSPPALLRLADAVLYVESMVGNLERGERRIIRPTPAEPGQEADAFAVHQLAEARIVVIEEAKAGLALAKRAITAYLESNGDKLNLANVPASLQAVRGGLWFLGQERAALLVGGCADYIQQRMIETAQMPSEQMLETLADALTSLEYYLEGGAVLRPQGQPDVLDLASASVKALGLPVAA
Test: two-hybrid

B1: PilG fused to T18 or T25 (BACTH) (natural protein)
chain: MEQQSDGLKVMVIDDSKTIRRTAETLLKKVGCDVITAIDGFDALAKIADTHPNIIFVDIMMPRLDGYQTCALIKNNSAFKSTPVIMLSSKDGLFDKAKGRIVGSDQYLTKPFSKEELLGAIKAHVPSFTPVDAVS
fold increase in β-galactosidase activity over controls: ~20 fold
